Data: US10400249B2, “HPPD variants and methods of use” (priority 2014, dated 2019)

How the values were obtained:
soybean shoots = assay: soybean transformation, greening or bleaching of shoots on isoxaflutole or tembotrione selection; format: in vivo; details: selection amount of herbicide
Text: Soybean transformation is achieved using methods well known in the art, such as the one described using the Agrobacterium tumefaciens mediated transformation soybean half-seed explants using essentially the method described by Paz et al. (2006), Plant cell Rep. 25:206. Transformants were identified using tembotrione or isoxaflutole as selection marker. The appearance of green shoots was observed, and documented as an indicator of tolerance to the herbicide isoxaflutole or tembotrione.

maize T0 events = assay: greenhouse spray test of maize T0 events for tolerance to Cmpd. 4; format: in vivo; details: 25 g AI/ha
[1] = system: Pseudomonas fluorescens HPPD protein; assay: HGD assay: HPPD activity coupled to HGA dioxygenase, pI50 and type of inhibition (time-course); format: biochemical
Method in brief: (§1)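 pI50 values for Pseudomonas fluorescens HPPD come from two room-temperature formats. The coupled HGD assay continuously follows maleylacetoacetate at 318 nm (pH 7.6 Tris, 600 μM HPP, FeSO4, ascorbate, catalase, inhibitor up to 100 μM) and classifies inhibition type from time-dependence. The endpoint OD assay measures unconsumed 0.5 mM HPP after 24 min via DNP hydrazone at 405 nm (pH 7.8), testing 5.0×10^−6–5.0×10^−4 M inhibitor.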

[2] = system: Pseudomonas fluorescens HPPD protein; assay: OD assay: HPPD activity and pI50 from HPP remaining after derivatisation with DNP; format: biochemical
Method in brief: as §1

T0 soybean plants = assay: greenhouse spray test of T0 soybean plants for tolerance to mesotrione; format: in vivo; details: mesotrione 3X field rate, 316 grams AI per hectare, seven days after treatment
Method: T0 soybean plants expressing an HPPD inhibitor tolerant enzyme of the present invention, along with a gene conferring tolerance to glyphosate and a gene conferring tolerance to glufosinate or having a “plant expression cassette”, which includes only an HPPD inhibitor tolerant enzyme of the present invention, were tested for tolerance to mesotrione. Prior greenhouse trials with the transgenic plants, soy transformants were routinely analyzed for the expression and presence of the transgenes using the ELISA protein detection method (see detailed description under item D and H). Only plants recovering in the selection media and having a detectable HPPD transgene protein expression were used for the herbicide tolerance analysis. A DeVries Tracker Sprayer was calibrated prior to each spraying. The chemical formulation used for mesotrione (MST) testing was Callisto® 4 SC formulation supplemented with ammonium sulfate and methylated rape seed oil (Actirob). Spray tests were conducted using 3× the field rate (equivalent to 9 fluid ounce per acre of the same herbicide formulation that containing 40% the active ingredient (AI), mesotrione), which equals 316 grams AI per hectare. Tolerance was evaluated one week after spraying. […] A tolerance rating of “0” was assigned to plants that their shoot apexes, newly emerged trifoliates and some axillary buds were completely bleached. A rating of “1” was assigned to plants having slight tolerance, i.e., the newest plant shoot tissues had some green leaves and are not bleached completely. A rating of “2” was assigned to plants showing moderate tolerance, i.e., more than 50% of the leaf area of the top three trifoliates showing no chlorosis or bleaching damage. A rating of “3” was assigned to plants showing nearly perfect tolerance, i.e., less than 10% of the leaf area showing chlorosis or very slight bleaching.

[3] = system: Pseudomonas fluorescens HPPD protein; assay: brown color assay: HPPD extracts spotted on solid media containing tyrosine and an HPPD inhibitor; format: biochemical; details: TBT, DKN and mesotrione 500-2000 uM, compared with PfHPPD and PfEvo33
Method: A specific, although non-limiting, type of assay that can be used to evaluate the HPPD sequences of the invention is a colorimetric assay. In this assay, a YT-broth-type culture medium with 1% agarose, 5 mM L-Tyrosine and 42 mM Succinate, which contains the selection agent for the vector pSE420 (Invitrogen, Karlsruhe, Germany) or a modified version of pSE420 (pSE420(RI)NX) is poured into deep well plates. E. coli culture in the exponential growth phase which contains the vector pSE420-HPPDx (HPPDx means any gene coding for a putative HPPD enzyme/protein) is applied to each well.
The HPPD PfEvo33 mutant (described in International Patent Application No PCT/US2013/59598 (filed on Sep. 13, 2013) and set forth herein as SEQ ID NO:5) was mutagenized at positions 334 and 336. Saturated mutagenesis of these positions was carried out using the QUIKCHANGE® lightning kit. Mutants were pooled and transformed into DH5alpha E. coli cells. Six hundred individual clones were screened for tolerance to the HPPD inhibitor tembotrione (TBT). The clones were grown in LB media plus kanamycin at 37 degrees C. in a shaker until an OD600 nm of 0.3 was reached. Cultures were then switched to 30 degrees C. and incubated for an additional 17 hours. Cultures were spun down and cell pellets resuspended in 10 mM Hepes/KOH pH 7.6, 4 mM MgCl2, 1 mM DTT. […]
The mutants were analyzed using a brown color assay. […]

[4] = HT-single plant expression cassette
[5] = HT-triple plant expression cassette

Molecule: CS(=O)(=O)c1cc(C(F)(F)F)ccc1C(=O)c1cnoc1C1CC1 [isoxaflutole, (5-cyclopropyl-4-isoxazolyl)[2-(methylsulfonyl)-4-(trifluoromethyl)phenyl]methanone]
- appearance of wild-type soybean shoots treated with the herbicide (soybean shoots): entirely bleached

Molecule: CS(=O)(=O)c1ccc(C(=O)C2C(=O)CCCC2=O)c(Cl)c1COCC(F)(F)F [tembotrione, 2-[2-chloro-4-(methylsulfonyl)-3-[(2,2,2,-trifluoroethoxy)methyl]benzoyl]-1,3-cyclo-hexanedione]
- appearance of wild-type soybean shoots treated with the herbicide (soybean shoots): entirely bleached

Molecule: CSc1c(C(F)(F)F)ccc(C(=O)Nc2nnnn2C)c1Cl [Cmpd. 4, 2-chloro-3-(methylsulfanyl)-N-(1-methyl-1H-tetrazol-5-yl)-4-(trifluoromethyl)benzamide]
- leaf damage of control maize T0 events expressing EPSPS only, no HPPD variant (maize T0 events): 100%
- leaf damage of non-transformed maize plants (maize T0 events): 100%

B1: PfEvo44: PfHPPD variant E335P, G336Y (protein)
chain: MADLYENPMGLMGFEFIEFASPTPGTLEPIFEIMGFTKVATHRSKNVHLYRQGEINLILNNEPNSIASYFAAEHGPSVCGMAFRVKDSQKAYNRALELGAQPIHIDTGPMELNLPAIKGIGGAPLYLIDRFGEGSSIYDIDFVYLEGVERNPVGAGLKVIDHLTHNVYRGRMVYWANFYEKLFNFREARYFDIKGEYTGLTSKAMSAPDGMIRIPLNEESSKGAGQIEEFLMQFNGEGIQHVAFLTDDLVKTWDALKKIGMRFMTAPPDTYYEMLEGRLPDHGEPVDQLQARGILLDGSSVEGDKRLLLQIFSETLMGPVFFEFIQRKGDDGFGPYNFKALFESIERDQVRRGVLTAD
modifications: HPPD variant - PfEvo44
notes: PfHPPD variant E335P, G336Y
- mechanism of inhibition by diketonitrile (DKN), time-course of inhibition [1]: fully reversible inhibition
- mechanism of inhibition by mesotrione (MST), time-course of inhibition [1]: fully reversible inhibition
- mechanism of inhibition by tembotrione (TBT), time-course of inhibition [1]: fully reversible inhibition
- tolerance (pI50) DKN ([1]; inhibitor diketonitrile (DKN), HGD assay): 4.1
- tolerance (pI50) MST ([1]; inhibitor mesotrione (MST), HGD assay): 5.2
- tolerance (pI50) TBT ([1]; inhibitor tembotrione (TBT), HGD assay): 5.9
- Activity DeltaE/24 min μg Protein ([2]; HPPD enzyme activity of the clone): 0.41 DeltaE/24 min μg Protein
- tolerance (pI50) DKN ([2]; inhibitor diketonitrile (DKN), negative log of molar concentration): 4.0
- tolerance (pI50) MST ([2]; inhibitor mesotrione (MST)): 4.6
- tolerance (pI50) TBT ([2]; inhibitor tembotrione (TBT)): >5.6
- Number of T0 soybean plants with herbicide tolerance rating 0 (completely bleached) (T0 soybean plants; [4]): 7
- Number of T0 soybean plants with herbicide tolerance rating 1 (slight tolerance) (T0 soybean plants; [4]): 14
- Number of T0 soybean plants with herbicide tolerance rating 2 (moderate tolerance) (T0 soybean plants; [4]): 43
- Number of T0 soybean plants with herbicide tolerance rating 3 (nearly perfect tolerance) (T0 soybean plants; [4]): 21
- Number of T0 soybean plants with herbicide tolerance rating 0 (completely bleached) (T0 soybean plants; [5]): 4
- Number of T0 soybean plants with herbicide tolerance rating 1 (slight tolerance) (T0 soybean plants; [5]): 22
- Number of T0 soybean plants with herbicide tolerance rating 2 (moderate tolerance) (T0 soybean plants; [5]): 19
- Number of T0 soybean plants with herbicide tolerance rating 3 (nearly perfect tolerance) (T0 soybean plants; [5]): 26
- brown color formation in presence of HPPD inhibitors [3]: darkest color
